The values below come from paper PMC9005348.

The target in this test is rsGCaMP.LP294TR.ΔRSET (rsGCaMP1.1). The experiment in a line: crystal structure; crystals with domain-swapped dimers; for rsGCaMP1.1 the C2 space group, two molecules in the asymmetric unit; Ca2+-bound protein.

By stoichiometry N is commonly meant a count of units in the complex or per binding partner. The substance rsGCaMP.LP294TR.ΔRSET (rsGCaMP1.1) gave a stoichiometry N of 2.
